T1: Activin A (Homo sapiens (Human), UniProt P08476 311-426)
T1 sequence: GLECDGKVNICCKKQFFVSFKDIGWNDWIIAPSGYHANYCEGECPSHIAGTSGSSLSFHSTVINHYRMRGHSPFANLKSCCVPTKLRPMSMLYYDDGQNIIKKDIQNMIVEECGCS

B1: ActRIIB-IgG1 Fc E28C, linker GGGGS (Fc fusion)
chain: SGRGEAETRCCIYYNANWELERTNQSGLERCEGEQDKRLHCYASWRNSSGTIELVKKGCWLDDFNCYDRQECVATEENPQVYFCCCEGNFCNERFTHLPEAGGPEVTYEPPPTAPTGGGGSAPELLGGPSVFLFPPKPKDILMISRTPEVTCVVVDVSHEDPEVKFNWYVGGVEVHNAKTKPREEQYNSTYRVVSVLTVLHQDWLNGKEYKCKVSNKALPAPIEKTISKAKGQPREPQVYTLPPSRDELTKNQVSLTCLVKGFYPSDIAVEWESNGQPENNYKTTPPVLDSDGSFFLYSKLTVDKSRWQQGNVFSCSVMHEALHNHYTQKSLSLSPGK
notes: Tested from conditioned media
B2: ActRIIB-IgG1 Fc R40I, linker GGGGS (Fc fusion)
chain: SGRGEAETRECIYYNANWELEITNQSGLERCEGEQDKRLHCYASWRNSSGTIELVKKGCWLDDFNCYDRQECVATEENPQVYFCCCEGNFCNERFTHLPEAGGPEVTYEPPPTAPTGGGGSAPELLGGPSVFLFPPKPKDILMISRTPEVTCVVVDVSHEDPEVKFNWYVGGVEVHNAKTKPREEQYNSTYRVVSVLTVLHQDWLNGKEYKCKVSNKALPAPIEKTISKAKGQPREPQVYTLPPSRDELTKNQVSLTCLVKGFYPSDIAVEWESNGQPENNYKTTPPVLDSDGSFFLYSKLTVDKSRWQQGNVFSCSVMHEALHNHYTQKSLSLSPGK
notes: Tested from conditioned media
B3: ActRIIB-IgG1 Fc R40C, linker GGGGS (Fc fusion)
chain: SGRGEAETRECIYYNANWELECTNQSGLERCEGEQDKRLHCYASWRNSSGTIELVKKGCWLDDFNCYDRQECVATEENPQVYFCCCEGNFCNERFTHLPEAGGPEVTYEPPPTAPTGGGGSAPELLGGPSVFLFPPKPKDILMISRTPEVTCVVVDVSHEDPEVKFNWYVGGVEVHNAKTKPREEQYNSTYRVVSVLTVLHQDWLNGKEYKCKVSNKALPAPIEKTISKAKGQPREPQVYTLPPSRDELTKNQVSLTCLVKGFYPSDIAVEWESNGQPENNYKTTPPVLDSDGSFFLYSKLTVDKSRWQQGNVFSCSVMHEALHNHYTQKSLSLSPGK
notes: Tested from conditioned media
B4: ActRIIB-IgG1 Fc E28R, linker GGGGS (Fc fusion)
chain: SGRGEAETRRCIYYNANWELERTNQSGLERCEGEQDKRLHCYASWRNSSGTIELVKKGCWLDDFNCYDRQECVATEENPQVYFCCCEGNFCNERFTHLPEAGGPEVTYEPPPTAPTGGGGSAPELLGGPSVFLFPPKPKDILMISRTPEVTCVVVDVSHEDPEVKFNWYVGGVEVHNAKTKPREEQYNSTYRVVSVLTVLHQDWLNGKEYKCKVSNKALPAPIEKTISKAKGQPREPQVYTLPPSRDELTKNQVSLTCLVKGFYPSDIAVEWESNGQPENNYKTTPPVLDSDGSFFLYSKLTVDKSRWQQGNVFSCSVMHEALHNHYTQKSLSLSPGK
notes: Tested from conditioned media
B5: ActRIIB-IgG1 Fc E28G, linker GGGGS (Fc fusion)
chain: SGRGEAETRGCIYYNANWELERTNQSGLERCEGEQDKRLHCYASWRNSSGTIELVKKGCWLDDFNCYDRQECVATEENPQVYFCCCEGNFCNERFTHLPEAGGPEVTYEPPPTAPTGGGGSAPELLGGPSVFLFPPKPKDILMISRTPEVTCVVVDVSHEDPEVKFNWYVGGVEVHNAKTKPREEQYNSTYRVVSVLTVLHQDWLNGKEYKCKVSNKALPAPIEKTISKAKGQPREPQVYTLPPSRDELTKNQVSLTCLVKGFYPSDIAVEWESNGQPENNYKTTPPVLDSDGSFFLYSKLTVDKSRWQQGNVFSCSVMHEALHNHYTQKSLSLSPGK
notes: Tested from conditioned media
B6: ActRIIB-IgG1 Fc E28D, linker GGGGS (Fc fusion)
chain: SGRGEAETRDCIYYNANWELERTNQSGLERCEGEQDKRLHCYASWRNSSGTIELVKKGCWLDDFNCYDRQECVATEENPQVYFCCCEGNFCNERFTHLPEAGGPEVTYEPPPTAPTGGGGSAPELLGGPSVFLFPPKPKDILMISRTPEVTCVVVDVSHEDPEVKFNWYVGGVEVHNAKTKPREEQYNSTYRVVSVLTVLHQDWLNGKEYKCKVSNKALPAPIEKTISKAKGQPREPQVYTLPPSRDELTKNQVSLTCLVKGFYPSDIAVEWESNGQPENNYKTTPPVLDSDGSFFLYSKLTVDKSRWQQGNVFSCSVMHEALHNHYTQKSLSLSPGK
notes: Tested from conditioned media
B7: ActRIIB-IgG1 Fc E28T, linker GGGGS (Fc fusion)
chain: SGRGEAETRTCIYYNANWELERTNQSGLERCEGEQDKRLHCYASWRNSSGTIELVKKGCWLDDFNCYDRQECVATEENPQVYFCCCEGNFCNERFTHLPEAGGPEVTYEPPPTAPTGGGGSAPELLGGPSVFLFPPKPKDILMISRTPEVTCVVVDVSHEDPEVKFNWYVGGVEVHNAKTKPREEQYNSTYRVVSVLTVLHQDWLNGKEYKCKVSNKALPAPIEKTISKAKGQPREPQVYTLPPSRDELTKNQVSLTCLVKGFYPSDIAVEWESNGQPENNYKTTPPVLDSDGSFFLYSKLTVDKSRWQQGNVFSCSVMHEALHNHYTQKSLSLSPGK
notes: Tested from conditioned media
B8: ActRIIB-IgG1 Fc R40L, linker GGGGS (Fc fusion)
chain: SGRGEAETRECIYYNANWELELTNQSGLERCEGEQDKRLHCYASWRNSSGTIELVKKGCWLDDFNCYDRQECVATEENPQVYFCCCEGNFCNERFTHLPEAGGPEVTYEPPPTAPTGGGGSAPELLGGPSVFLFPPKPKDILMISRTPEVTCVVVDVSHEDPEVKFNWYVGGVEVHNAKTKPREEQYNSTYRVVSVLTVLHQDWLNGKEYKCKVSNKALPAPIEKTISKAKGQPREPQVYTLPPSRDELTKNQVSLTCLVKGFYPSDIAVEWESNGQPENNYKTTPPVLDSDGSFFLYSKLTVDKSRWQQGNVFSCSVMHEALHNHYTQKSLSLSPGK
notes: Tested from conditioned media
B9: ActRIIB-IgG1 Fc R40F, linker GGGGS (Fc fusion)
chain: SGRGEAETRECIYYNANWELEFTNQSGLERCEGEQDKRLHCYASWRNSSGTIELVKKGCWLDDFNCYDRQECVATEENPQVYFCCCEGNFCNERFTHLPEAGGPEVTYEPPPTAPTGGGGSAPELLGGPSVFLFPPKPKDILMISRTPEVTCVVVDVSHEDPEVKFNWYVGGVEVHNAKTKPREEQYNSTYRVVSVLTVLHQDWLNGKEYKCKVSNKALPAPIEKTISKAKGQPREPQVYTLPPSRDELTKNQVSLTCLVKGFYPSDIAVEWESNGQPENNYKTTPPVLDSDGSFFLYSKLTVDKSRWQQGNVFSCSVMHEALHNHYTQKSLSLSPGK
notes: Tested from conditioned media
B10: ActRIIB-IgG1 Fc E28S, linker GGGGS (Fc fusion)
chain: SGRGEAETRSCIYYNANWELERTNQSGLERCEGEQDKRLHCYASWRNSSGTIELVKKGCWLDDFNCYDRQECVATEENPQVYFCCCEGNFCNERFTHLPEAGGPEVTYEPPPTAPTGGGGSAPELLGGPSVFLFPPKPKDILMISRTPEVTCVVVDVSHEDPEVKFNWYVGGVEVHNAKTKPREEQYNSTYRVVSVLTVLHQDWLNGKEYKCKVSNKALPAPIEKTISKAKGQPREPQVYTLPPSRDELTKNQVSLTCLVKGFYPSDIAVEWESNGQPENNYKTTPPVLDSDGSFFLYSKLTVDKSRWQQGNVFSCSVMHEALHNHYTQKSLSLSPGK
notes: Tested from conditioned media
B11: ActRIIB-IgG1 Fc E28N, linker GGGGS (Fc fusion)
chain: SGRGEAETRNCIYYNANWELERTNQSGLERCEGEQDKRLHCYASWRNSSGTIELVKKGCWLDDFNCYDRQECVATEENPQVYFCCCEGNFCNERFTHLPEAGGPEVTYEPPPTAPTGGGGSAPELLGGPSVFLFPPKPKDILMISRTPEVTCVVVDVSHEDPEVKFNWYVGGVEVHNAKTKPREEQYNSTYRVVSVLTVLHQDWLNGKEYKCKVSNKALPAPIEKTISKAKGQPREPQVYTLPPSRDELTKNQVSLTCLVKGFYPSDIAVEWESNGQPENNYKTTPPVLDSDGSFFLYSKLTVDKSRWQQGNVFSCSVMHEALHNHYTQKSLSLSPGK
notes: Tested from conditioned media
B12: ActRIIB-IgG1 Fc E28P, linker GGGGS (Fc fusion)
chain: SGRGEAETRPCIYYNANWELERTNQSGLERCEGEQDKRLHCYASWRNSSGTIELVKKGCWLDDFNCYDRQECVATEENPQVYFCCCEGNFCNERFTHLPEAGGPEVTYEPPPTAPTGGGGSAPELLGGPSVFLFPPKPKDILMISRTPEVTCVVVDVSHEDPEVKFNWYVGGVEVHNAKTKPREEQYNSTYRVVSVLTVLHQDWLNGKEYKCKVSNKALPAPIEKTISKAKGQPREPQVYTLPPSRDELTKNQVSLTCLVKGFYPSDIAVEWESNGQPENNYKTTPPVLDSDGSFFLYSKLTVDKSRWQQGNVFSCSVMHEALHNHYTQKSLSLSPGK
notes: Tested from conditioned media
B13: ActRIIB-IgG1 Fc R40Q, linker GGGGS (Fc fusion)
chain: SGRGEAETRECIYYNANWELEQTNQSGLERCEGEQDKRLHCYASWRNSSGTIELVKKGCWLDDFNCYDRQECVATEENPQVYFCCCEGNFCNERFTHLPEAGGPEVTYEPPPTAPTGGGGSAPELLGGPSVFLFPPKPKDILMISRTPEVTCVVVDVSHEDPEVKFNWYVGGVEVHNAKTKPREEQYNSTYRVVSVLTVLHQDWLNGKEYKCKVSNKALPAPIEKTISKAKGQPREPQVYTLPPSRDELTKNQVSLTCLVKGFYPSDIAVEWESNGQPENNYKTTPPVLDSDGSFFLYSKLTVDKSRWQQGNVFSCSVMHEALHNHYTQKSLSLSPGK
notes: Tested from conditioned media
B14: ActRIIB-IgG1 Fc R40N, linker GGGGS (Fc fusion)
chain: SGRGEAETRECIYYNANWELENTNQSGLERCEGEQDKRLHCYASWRNSSGTIELVKKGCWLDDFNCYDRQECVATEENPQVYFCCCEGNFCNERFTHLPEAGGPEVTYEPPPTAPTGGGGSAPELLGGPSVFLFPPKPKDILMISRTPEVTCVVVDVSHEDPEVKFNWYVGGVEVHNAKTKPREEQYNSTYRVVSVLTVLHQDWLNGKEYKCKVSNKALPAPIEKTISKAKGQPREPQVYTLPPSRDELTKNQVSLTCLVKGFYPSDIAVEWESNGQPENNYKTTPPVLDSDGSFFLYSKLTVDKSRWQQGNVFSCSVMHEALHNHYTQKSLSLSPGK
notes: Tested from conditioned media

Each binder was assayed against T1, Activin A (assay: Biacore SPR grade, COS transient conditioned media).
Protocol: (§1) Qualitative BIAcore® Assay. E28 and R40 were substituted respectively with other natural amino acids in fusions with IgG1 Fc as described above. Each vActRIIB-IgG1Fc sample from conditioned media was captured on goat anti-human IgG1 Fc antibody (Jackson Immuno Research, cat#109-005-098, lot 63550) coated CMS surface. 20 nM of Activin A was injected over captured sample surfaces using BIACore2000 (BIACore Life Sciences, Piscataway, N.J.). The resulting sensorgrams were normalized to the captured RL (500 RU) of vActRIIB-IgG1Fc variants. The normalized binding response (RU) for some variants are shown in Table 2, and is further described below. Relative binding affinity for activin was also determined by Biacore measurements using conditioned media obtained from mammalian cell expression. Activin A (20 nM) was used to capture soluble receptor polypeptide in the conditioned media and measured SPR signals were normalized. Normalized SPR of +++++: >60, ++++:40-60, +++:20-40, ++:10-20, +: 5-10, −: <5.

Binder	normalized SPR signal [ru]
B1	< 5
B2	< 5
B3	< 5
B4	< 5
B5	< 5
B6	< 5
B7	< 5
B8	< 5
B9	< 5
B10	< 5
B11	< 5
B12	< 5

What follows are binders tested against T1, Activin A (assay: Biacore SPR grade, COS transient conditioned media, 20 nM activin A).
Protocol: as §1

Binder	normalized SPR signal [ru]
B13	5 to 10
B14	10 to 20

From US20130288983A1 (Amgen, published 2013)
